Data from US11795488B2, “Methods for enzymatic peptide ligation” (NANYANG TECHNOLOGICAL UNIVERSITY, priority 2016, dated 2023).
Several values for one entry are separate records, joined by “and”; a condition that tells them apart may be missing. Identical values can stand only once.

What was measured:
[1] = biological target: the molecule itself; assay: size exclusion chromatography (self-association)
OaAEP1 = assay: Self-activation (acid-induced self-cleavage) of OaAEP1 and mutants, SDS PAGE; type: biochemical, Oldenlandia affinis; settings: activation for 3 hours
Description: To self-activate OaAEP1, 1 mM EDTA and 0.5 mM Tris (2-carboxyethyl) phosphine hydrochloride were added to the immature protein and the pH of the solution was adjusted to 4 with glacial acetic acid. Fractions containing the protein (as analyzed by SDS-PAGE) were pooled and then incubated for 3 to 16 hours at room temperature or 37° C. Protein precipitation at this pH allowed removal of the bulk of the contaminating proteins by centrifugation. Activated proteins were concentrated by ultracentrifugation using a 50 kDa cutoff concentrator (Sartorius) and stored at −80° C.
OaAEP1 was cloned and expressed in E. coli as an ubiquitin fusion protein as reported earlier (FIG. 2) (Harris, K. S., et al., Nat Commun, 2015. 6: p. 10199). Using ion exchange and size exclusion chromatography (SEC), sufficient amounts of pure protein suitable for enzymatic and structural analysis were obtained (FIG. 2B). At the neutral pH of purification (pH=7.4), OaAEP1 was mainly present as a heterodimer, where both monomers are in their zymogenic form, but only one monomer had retained in addition the ubiquitin and N-terminal His-tag, while the fusion moiety was cleaved in the other monomer (labeled as “His-Ub-AEP-FL” and “AEP-FL” in FIG. 2B and FIG. 2C). This heterodimer was subjected to crystallization trials for structural studies (see below). In agreement with reference (Harris, K. S., et al., Nat Commun, 2015. 6: p. 10199), activation of OaAEP1 was optimum for pH values in the range of 3.4-4.0 (FIG. 2D). Following activation, OaAEP1 converts to a monomer in solution according to SEC analysis (“AEP-holo” in FIG. 2C). To test the ability of the protein to be activated in trans, the catalytic residue Cys217 was mutated into Ser217.
Since the crystallization conditions are compatible with OaAEP1 activation, the present crystal structure is likely to have captured one of the conformational states occurring along the activation pathway. To determine whether Gln347 belongs to the segment recognized and cleaved during self-activation, mutagenesis experiments targeting region 346-351 of the OaAEP1 protein were performed (FIG. 4C). The role of Gln347 in OaAEP1 auto-activation was particularly assessed by mutating this residue to Ala, and whether enzyme activation was abolished was examined. Only little impact was found on the mutant enzyme activation (FIG. 4C). Residues Asn346, Asp349 and Asp351 that are next to Gln347 were then targeted. […] Thus, trans-activation requires the presence of at least one of the four Asx/Gln residues (with a slight preference for Asp349 or Asp351) found in this segment of the linker.

[2] = tested on: peptide substrate "[…]" (SEQ ID NO: 18); assay: Peptide cyclization assay, kinetic analysis (HPLC/MS); type: biochemical; settings: cyclization of GLPVSTKPVATRNGL, 37° C., enzyme 700 nM
Description: (§1) Native and modified amino acids were purchased from Sigma-Aldrich (USA). All peptides used in this manuscript were synthesized in-house using the solid-phase method and HPLC purified. Cyclization assays were performed in 50-μl reaction mixtures containing 20 mM phosphate buffer, ligases (5 to 700 nM) and peptide substrates (10 to 300 μM). Each reaction was performed in triplicate at 37° C. and quenched by adding 5 μl of 1 M HCl solution. The peptides were separated by using a reversed-phase C18 analytical column (150×2.1 mm, Vydac) with a linear gradient from 10% to 50% acetonitrile over 15 min on a Nexera UHPLC system (Shimadzu). For kinetic analysis, the concentrations of WT OaAEP1, mutant OaAEP1, and butelase 1 were fixed at 700 nM, 50 nM, and 20 nM, respectively. The cyclization velocities were calculated by converting the HPLC-peak areas of remained linear precursors or the cyclized products into concentrations. The identity of each HPLC peak was analyzed by MALDI-TOF MS (ABI 4800 MALDI TOF/TOF). The velocities were input into GraphPad Prism (GraphPad Software, San Diego) to obtain the Michaelis-Menten curve and the kinetic parameters (kcat and Km). Comparison for the cyclization efficiency of various OaAEP1 mutants were performed in a volume of 20 μl of the reaction mixture and analyzed by MALDI-TOF MS after 10 mins or 1 hour ligation reaction.
The peptide cyclization activity of mature OaAEP1 was then analyzed using MS and the peptide substrate “[…]” (SEQ ID NO: 18) (FIG. 5A). The turn-over rate (kcat) for OaAEP1 is 0.052 s^−1, a value in good agreement with the previous report (Harris, K. S., et al., Nat Commun, 2015. 6: p. 10199). Likewise, the cyclization activity of butelase 1 extracted from plant was measured using the 15 residues peptide “[…]” (SEQ ID NO: 19) (FIG. 5A) leading to a kcat about 90 times faster than OaAEP1 b.

[3] = tested on: ubiquitin and SNAP tag protein; assay: Ligation of two well-folded proteins; type: biochemical
Description: (a) Fluorescence detection using 02 benzylcytosine-Alexa647 of the SNAP protein and SDS PAGE analysis with Comassie blue staining detection of the protein substrate and ligated products. The reaction is schematically depicted as inset. Cys247Ala ligates well folded protein well. […] (b) As little as 30 nM Cys247Ala catalyze ligation of 100 μM Ubiquitin and 500 μM biotin labelled peptide efficiently in 30 min, at room temperature, in pH 7.4 PBS buffer.
The ability of Cys247Ala to ligate ubiquitin with a peptide was first tested. The three residues“Asn-Gly-Leu” were added to the C-terminus of ubiquitin to make it recognizable by Cys247Ala. Another peptide having N-terminal residues GlyLeu was used as the add-on component. At a protein: peptide molar ratio of 1:5, Cys247Ala catalyzed the ligation of more than 90% ubiquitin with the peptide within 10 min (FIG. 6). An amount of 30 nM of Cys247Ala was enough for the reaction compared to 10-30 μM of sortase A typically required to perform productive ligations. […] Ubiquitin having the same “Asn-Gly-Leu” modification at its C-terminal end and a N-terminal modified SNAP (NEB) tag protein were used as substrates. […] Protein ligation can be performed within minutes at neutral pH and at room temperature.

[4] = tested on: peptide "[…]" (SEQ ID NO: 19); assay: Peptide cyclization assay of butelase 1; type: biochemical; settings: butelase 1 extracted from plant, peptide GLPVSTKPVATRNHV
Description: as §1, with “The velocities were input into GraphPad Prism (GraphPad Software, San Diego) to obtain the Michaelis-Menten curve and the kinetic parameters (kcat and Km).” left out
The peptide cyclization activity of mature OaAEP1 was then analyzed using MS and the peptide substrate “[…]” (SEQ ID NO: 18) (FIG. 5A). […]

[5] = tested on: ubiquitin with C-terminal Asn-Gly-Leu and peptide having N-terminal residues GlyLeu; settings: comparison value; cited from earlier work
Sequence of ubiquitin with C-terminal Asn-Gly-Leu and peptide having N-terminal residues GlyLeu (as listed by the source): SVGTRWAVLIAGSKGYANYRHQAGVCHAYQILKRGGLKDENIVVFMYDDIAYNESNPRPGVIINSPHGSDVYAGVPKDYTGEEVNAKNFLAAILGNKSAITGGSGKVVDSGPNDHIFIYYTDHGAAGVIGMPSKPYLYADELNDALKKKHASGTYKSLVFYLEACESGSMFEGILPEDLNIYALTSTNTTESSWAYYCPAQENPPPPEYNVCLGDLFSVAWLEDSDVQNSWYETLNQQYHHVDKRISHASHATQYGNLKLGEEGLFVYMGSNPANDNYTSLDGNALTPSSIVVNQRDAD

B1: AEP-holo (activated form of OaAEP1, without the C-terminal cap domain) (enzyme)
chain: SVGTRWAVLIAGSKGYANYRHQAGVCHAYQILKRGGLKDENIVVFMYDDIAYNESNPRPGVIINSPHGSDVYAGVPKDYTGEEVNAKNFLAAILGNKSAITGGSGKVVDSGPNDHIFIYYTDHGAAGVIGMPSKPYLYADELNDALKKKHASGTYKSLVFYLEACESGSMFEGILPEDLNIYALTSTNTTESSWCYYCPAQENPPPPEYNVCLGDLFSVAWLEDSDVQNSWYETLNQQYHHVDKRISHASHATQYGNLKLGEEGLFVYMGSNPANDNYTSLDGNALTPSSIVVNQRDAD
notes: also called mature OaAEP1
B1: no binding [1].

B2: OaAEP1: wild type asparaginyl endopeptidase from Oldenlandia affinis, SEQ ID NO:3, weak peptide cyclase (protein, listed as Ovaloparmena affinis)
chain: MVRYLAGAVLLLVVLSVAAAVSGARDGDYLHLPSEVSRFFRPQETNDDHGEDSVGTRWAVLIAGSKGYANYRHQAGVCHAYQILKRGGLKDENIVVFMYDDIAYNESNPRPGVIINSPHGSDVYAGVPKDYTGEEVNAKNFLAAILGNKSAITGGSGKVVDSGPNDHIFIYYTDHGAAGVIGMPSKPYLYADELNDALKKKHASGTYKSLVFYLEACESGSMFEGILPEDLNIYALTSTNTTESSWCYYCPAQENPPPPEYNVCLGDLFSVAWLEDSDVQNSWYETLNQQYHHVDKRISHASHATQYGNLKLGEEGLFVYMGSNPANDNYTSLDGNALTPSSIVVNQRDADLLHLWEKFRKAPEGSARKEEAQTQIFKAMSHRVHIDSSIKLIGKLLFGIEKCTEILNAVRPAGQPLVDDWACLRSLVGTFETHCGSLSEYGMRHTRTIANICNAGISEEQMAEAASQACASIP
In the case of B2, the “pH optimum of activation” value (OaAEP1) is reported as 3.4-4.0 pH and 3.4 to 4 pH, the “turn-over rate (kcat)” value [2] is reported as 0.052 s⁻¹ and the “protein ligation activity (control ligation experiments)” value [3] is reported as “but not with the OaAEP1 wild type construct”. The “ligation of SNAP tag protein with Ubiquitin” value ([3]; 5 μM SNAP tag, 100 nM Cys247Ala, 4000 nM wild type OaAEP1b) was “not”.

B3: butelase 1: AEP1 from Clitoria ternatea, Asx peptide ligase extracted from plant, SEQ ID NO:4 (protein, listed as Clitoria ternatea)
chain: IRDDFLRLPSQASKFFQADDNVEGTRWAVLVAGSKGYVNYRHQADVCHAYQILKKGGLKDENIIVFMYDDIAYNESNPHPGVIINHPYGSDVYKGVPKDYVGEDINPPNFYAVLLANKSALTGTGSGKVLDSGPNDHVFIYYTDHGGAGVLGMPSKPYIAASDLNDVLKKKHASGTYKSIVFYVESCESGSMFDGLLPEDHNIYVMGASDTGESSWVTYCPLQHPSPPPEYDVCVGDLFSVAWLEDCDVHNLQTETFQQQYEVVKNKTIVALIEDGTHVVQYGDVGLSKQTLFVYMGTDPANDNNTFTDKNSLGTPRKAVSQRDADLIHYWEKYRRAPEGSSRKAEAKKQLREVMAHRMHIDNSVKHIGKLLFGIEKGHKMLNNVRPAGLPVVDDWDCFKTLIRTFETHCGSLSEYGMKHMRSFANLCNAGIRKEQMAEASAQACVSIPDNPWSSLHAGFSV
For B3, the “kcat relative to OaAEP1b” value [4] was “about 90 times”.

B4: sortase A: bacterial sortase commonly used to catalyze transpeptidation reactions; recognizes LPXTG (protein, UniProt Q2FV99 1-206, looked up)
Sortase A: MKKWTNRLMTIAGVVLILVAAYLFAKPHIDNYLHDKDKDEKIEQYDKNVKEQASKDKKQQAKPQIPKDKSKVAGYIEIPDADIKEPVYPGPATPEQLNRGVSFAEENESLDDQNISIAGHTFIDRPNYQFTNLKAAKKGSMVYFKVGNETRKYKMTSIRDVKPTDVGVLDEQKGKDKQLTLITCDDYNEKTGVWEKRKIFVATEVK
For B4, the “amount of enzyme typically required to perform productive ligations” value [5] is listed as 10 to 30 µM.
